Source: patent US20230212319A1, “NOVEL ANTIGEN BINDING DOMAINS AND SYNTHETIC ANTIGEN RECEPTORS INCORPORATING THE SAME” (University of Southern California, priority 2020, published 2023)

B1: 22130 (protein)
chain: MALPVTALLLPLALLLHAARPACEVQLLESGGGLIQPGGSLRLSCAASGFTFSSHAMTWVRQAPGKGLEWVSAISGSGDYTHYADSVKGRFTISRDNSKNTVYLQMNSLRAEDSAVYYCAKDEDGGSLLGHRGQGTLVTVSSGTGGGGSGGGGSGGGGSEFDIQMTQSPSSLSASVGDRVTITCKASDHINNWLAWYQQKPGQAPKLLIYGATTLETGVPSRFSGSGSGTDYTLTISSLQPEDFATYYCQQSWNTPWTFGQGTKLEIKRLEDLKNVFPPEVAVFEPSKAEIAHTQKATLVCLATGFYPDHVELSWWVNGKEVHSGVCTDPQPLKEQPALNDSRYCLSSRLRVSATFWQNPRNHFRCQVQFYGLSENDEWTQDRAKPVTQIVSAEAWGRADCGITSASYHQGVLSATILYEILLGKATLYAVLVSALVLMAMVKRKDSRGRAKRSGSGATNFSLLKQAGDVEENPGPTSATMDWIWRILFLVGAATGAHSGPQVQLQESGGGLAQAGGSLRLSCAASGRTFSMGWFRQAPGKEREFVAAITYSGGSPYYASSVRGRFTISRDNAKNTVYLQMNSLKPEDTAVYYCAANPTYGSDWNAENWGQGTQVTVSSGSGGGGSGGGGSGGGGSFEQVQLQQPGAELVKPGASVKMSCKASGYAFSSYWINWMKQKPGQGLEWIGQIYPGDGDTNYNGKFKGRATLTADTSSSTAYMQLSSLTSEDSAVYFCARSITTVVGCAMDYWGQGTSVTVSSTRIQNPDPAVYQLRDSKSSDKSVCLFTDFDSQTNVSQSKDSDVYITDKCVLDMRSMDFKSNSAVAWSNKSDFACANAFNNSIIPEDTFFPSSDVPCDVKLVEKSFETDTNLNFQNLSVIGFRILLLKVAGFNLLMTLRLWSSRAKRSGSGVKQTLNFDLLKLAGDVESNPGPSRGHMTEYKPTVRLATRDDVPRAVRTLAAAFADYPATRHTVDPDRHIERVTELQELFLTRVGLDIGKVWVADDGAAVAVWTTPESVEAGAVFAEIGPRMAELSGSRLAAQQQMEGLLAPHRPKEPAWFLATVGVSPDHQGKGLGSAVVLPGVEAAERAGVPAFLETSAPRNLPFYERLGFTVTADVEVPEGPRTWCMTRKPGA
B2: 22116 (protein)
chain: MALPVTALLLPLALLLHAARPQVQLVESGGGLVQPGGSLRLSCAASGFTFTNHAMSWVRQAPGKGLELVSSISGNGRTTYYADSVKGRFTISRDISKNTLDLQMNSLRAEDTAVYYCAKDGGETLVDSRGQGTLVTVSSLEIQNPDPAVYQLRDSKSSDKSVCLFTDFDSQTNVSQSKDSDVYITDKCVLDMRSMDFKSNSAVAWSNKSDFACANAFNNSIIPEDTFFPSSDVPCDVKLVEKSFETDTNLNFQNLSVIGFRILLLKVAGFNLLMTLRLWSSRAKRSGSGVKQTLNFDLLKLAGDVESNPGPTSTMALPVTALLLPLALLLHAARPQVQLVESGGGLVQPGGSLRLSCAASGFTFTNHAMSWVRQAPGKGLELVSSISGNGRTTYYADSVKGRFTISRDISKNTLDLQMNSLRAEDTAVYYCAKDGGETLVDSRGQGTLVTVSSLESGGGGSFEQVQLQQPGAELVKPGASVKMSCKASGYAFSSYWINWMKQKPGQGLEWIGQIYPGDGDTNYNGKFKGRATLTADTSSSTAYMQLSSLTSEDSAVYFCARSITTVVGCAMDYWGQGTSVTVSSTREDLKNVFPPEVAVFEPSKAEIAHTQKATLVCLATGFYPDHVELSWWVNGKEVHSGVCTDPQPLKEQPALNDSRYCLSSRLRVSATFWQNPRNHFRCQVQFYGLSENDEWTQDRAKPVTQIVSAEAWGRADCGITSASYHQGVLSATILYEILLGKATLYAVLVSALVLMAMVKRKDSRGRAKRSGSGATNFSLLKQAGDVEENPGPSRGHMTEYKPTVRLATRDDVPRAVRTLAAAFADYPATRHTVDPDRHIERVTELQELFLTRVGLDIGKVWVADDGAAVAVWTTPESVEAGAVFAEIGPRMAELSGSRLAAQQQMEGLLAPHRPKEPAWFLATVGVSPDHQGKGLGSAVVLPGVEAAERAGVPAFLETSAPRNLPFYERLGFTVTADVEVPEGPRTWCMTRKPGA
B3: 22108 (protein)
chain: MALPVTALLLPLALLLHAARPQVQLVESGGGLVQPGGSLRLSCAASGFTFTNHAMSWVRQAPGKGLELVSSISGNGRTTYYADSVKGRFTISRDISKNTLDLQMNSLRAEDTAVYYCAKDGGETLVDSRGQGTLVTVSSGTGGGGSGGGGSGGGGSEFDIQMTQSPSSLSASVGDRVTITCKASDHINNWLAWYQQKPGQAPKLLIYGATTLETGVPSRFSGSGSGTDYTLTISSLQPEDFATYYCQQSWNTPWTFGQGTKLEIKRLEDLKNVFPPEVAVFEPSEAEISHTQKATLVCLATGFYPDHVELSWWVNGKEVHSGVCTDPQPLKEQPALNDSRYCLSSRLRVSATFWQNPRNHFRCQVQFYGLSENDEWTQDRAKPVTQIVSAEAWGRADCGFTSESYQQGVLSATILYEILLGKATLYAVLVSALVLMAMVKRKDSRGRAKRSGSGATNFSLLKQAGDVEENPGPTSMDWIWRILFLVGAATGAHSFEQVQLQQPGAELVKPGASVKMSCKASGYAFSSYWINWMKQKPGQGLEWIGQIYPGDGDTNYNGKFKGRATLTADTSSSTAYMQLSSLTSEDSAVYFCARSITTVVGCAMDYWGQGTSVTVSSTRIQNPDPAVYQLRDSKSSDKSVCLFTDFDSQTNVSQSKDSDVYITDKCVLDMRSMDFKSNSAVAWSNKSDFACANAFNNSIIPEDTFFPSPESSCDVKLVEKSFETDTNLNFQNLSVIGFRILLLKVAGFNLLMTLRLWSSRAKRSGSGVKQTLNFDLLKLAGDVESNPGPSRGHMTEYKPTVRLATRDDVPRAVRTLAAAFADYPATRHTVDPDRHIERVTELQELFLTRVGLDIGKVWVADDGAAVAVWTTPESVEAGAVFAEIGPRMAELSGSRLAAQQQMEGLLAPHRPKEPAWFLATVGVSPDHQGKGLGSAVVLPGVEAAERAGVPAFLETSAPRNLPFYERLGFTVTADVEVPEGPRTWCMTRKPGA
B4: 22229 (protein)
chain: MALPVTALLLPLALLLHAARPACEVQLLESGGGLIQPGGSLRLSCAASGFTFSSHAMTWVRQAPGKGLEWVSAISGSGDYTHYADSVKGRFTISRDNSKNTVYLQMNSLRAEDSAVYYCAKDEDGGSLLGHRGQGTLVTVSSGTGAIGFLRTAEFDIQMTQSPSSLSASVGDRVTITCKASDHINNWLAWYQQKPGQAPKLLIYGATTLETGVPSRFSGSGSGTDYTLTISSLQPEDFATYYCQQSWNTPWTFGQGTKLEIKRLEDLKNVFPPEVAVFEPSKAEIAHTQKATLVCLATGFYPDHVELSWWVNGKEVHSGVCTDPQPLKEQPALNDSRYCLSSRLRVSATFWQNPRNHFRCQVQFYGLSENDEWTQDRAKPVTQIVSAEAWGRADCGITSASYHQGVLSATILYEILLGKATLYAVLVSALVLMAMVKRKDSRGRAKRSGSGATNFSLLKQAGDVEENPGPTSATMDWIWRILFLVGAATGAHSGPEVQLVESGGGLVQAGGSLRLSCAASGRTFSMGWFRQAPGKEREFVAAITYSGGSPYYADSVKGRFTISRDNAKNTVYLQMNSLKPEDTAVYYCAANPTYGSDWNAENWGQGTQVTVSSGSGGGGSGGGGSGGGGSFEQVQLQQPGAELVKPGASVKMSCKASGYAFSSYWINWMKQKPGQGLEWIGQIYPGDGDTNYNGKFKGRATLTADTSSSTAYMQLSSLTSEDSAVYFCARSITTVVGCAMDYWGQGTSVTVSSTRIQNPDPAVYQLRDSKSSDKSVCLFTDFDSQTNVSQSKDSDVYITDKCVLDMRSMDFKSNSAVAWSNKSDFACANAFNNSIIPEDTFFPSPESSCDVKLVEKSFETDTNLNFQNLSVIGFRILLLKVAGFNLLMTLRLWSSRAKRSGSGVKQTLNFDLLKLAGDVESNPGPSRGHMTEYKPTVRLATRDDVPRAVRTLAAAFADYPATRHTVDPDRHIERVTELQELFLTRVGLDIGKVWVADDGAAVAVWTTPESVEAGAVFAEIGPRMAELSGSRLAAQQQMEGLLAPHRPKEPAWFLATVGVSPDHQGKGLGSAVVLPGVEAAERAGVPAFLETSAPRNLPFYERLGFTVTADVEVPEGPRTWCMTRKPGA

Legend:
Assay type in all cases: cell-based
RAJI-CD19-KO cells = assay: JNG assay, co-culture with RAJI-CD19-KO cells; settings: co-culture with Raji-CD19-KO
Method in brief: (§1)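 Jurkat NFAT-GFP (JNG) cells stably transduced with SARs by lentivirus, with drug selection where the construct carried a resistance gene, then co-cultured with target cells at E:T ~1:2 for ~4–18 h. % GFP-positive cells measured by FACS against parental JNG; +/- to 5+ correspond to ~5–50% GFP-positive.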

RS;411 = assay: JNG assay, co-culture with RS;411 cells; settings: co-culture with RS411
Method in brief: as §1

L363 cells = assay: JNG assay, co-culture with L363 cells; settings: co-culture with L363
Method in brief: as §1

RAJI cells = assay: JNG assay, co-culture with RAJI cells; settings: JNG cells expressing construct, co-culture with Raji
Method in brief: as §1

Nalm6 cells = assay: JNG assay, co-culture with Nalm6 cells; settings: co-culture with Nalm6
Method in brief: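 Read-out: % GFP-positive cells by flow cytometry after ~4 to 18 h coculture of SAR-transduced JNG cells with targets (E:T about 1:2). Scores reflect GFP induction above parental JNG controls: +/- ≈5%, + ≈10%, up to 5+ ≈50%.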

| Molecule | NFAT-GFP ASSAY: Raji-CD19-KO (RAJI-CD19-KO cells) | NFAT-GFP ASSAY: RS411 (RS;411) | NFAT-GFP ASSAY: L363 (L363 cells) | NFAT-GFP ASSAY: Raji (RAJI cells) | NFAT-GFP ASSAY: Nalm6 (Nalm6 cells) |
| --- | --- | --- | --- | --- | --- |
| B1 | 5+ (refer to approximately 5%, 10%, 20%, 30%, 40% and 50% GFP positive cells) | 4+ (refer to approximately 5%, 10%, 20%, 30%, 40% and 50% GFP positive cells) | 5+ (refer to approximately 5%, 10%, 20%, 30%, 40% and 50% GFP positive cells) | 4+ (refer to approximately 5%, 10%, 20%, 30%, 40% and 50% GFP positive cells) | – |
| B2 | 2+ (refer to approximately 5%, 10%, 20%, 30%, 40% and 50% GFP positive cells) | 2+ (refer to approximately 5%, 10%, 20%, 30%, 40% and 50% GFP positive cells) | – | 3+ (refer to approximately 5%, 10%, 20%, 30%, 40% and 50% GFP positive cells) | 3+ (refer to approximately 5%, 10%, 20%, 30%, 40% and 50% GFP positive cells) |
| B3 | 3+ (refer to approximately 5%, 10%, 20%, 30%, 40% and 50% GFP positive cells) | 5+ (refer to approximately 5%, 10%, 20%, 30%, 40% and 50% GFP positive cells) | – | 4+ (refer to approximately 5%, 10%, 20%, 30%, 40% and 50% GFP positive cells) | – |
| B4 | 5+ (refer to approximately 5%, 10%, 20%, 30%, 40% and 50% GFP positive cells) | 2+ (refer to approximately 5%, 10%, 20%, 30%, 40% and 50% GFP positive cells) | – | 3+ (refer to approximately 5%, 10%, 20%, 30%, 40% and 50% GFP positive cells) | – |
